These results are taken from patent publication KR20190132616A (dated 2019).

One assay addresses T1, hTie2-Fc (R&D Systems) (human, UniProt Q02763 23-745).
T1 construct: Bought fusion protein, coated on the plate; also called hTie-2/Fc 융합 단백질; not shown: Fc of human IgG1
The experiment in a line: complex ELISA: Tie2-Fc coated, Ang2 0.25 ug/ml and 10D6 2 ug/ml added, anti-mouse IgG-HRP. On the technique in general: In an ELISA, binding on a coated surface is turned into a signal by an enzyme label.

For assay [1], the target named is Mutant Ang2 Q418 (alanine), FLAG-tagged (human) (UniProt O15123). The experiment in a line: ELISA, antibody coated (1000nM), FLAG-Ang2 mutant 250ng, anti-FLAG-HRP, OD450 against native Ang2.
Assay [2] addresses Mutant Ang2 F469 (alanine), FLAG-tagged (human) (UniProt O15123). The assay is described as above.
The target of assay [3] is Mutant Ang2 I434 (alanine), FLAG-tagged (human) (UniProt O15123). The assay is described as above.
Assay [4] has as its target Mutant Ang2 A449 (alanine), FLAG-tagged (human) (UniProt O15123). Described as above.
Assay [5] concerns the target Mutant Ang2 S417 (alanine), FLAG-tagged (human) (UniProt O15123). The assay is described as above.
In assay [6] the target is Mutant Ang2 D448 (alanine), FLAG-tagged (human) (UniProt O15123). The description is as above.
For assay [7], the target named is Mutant Ang2 K468 (alanine), FLAG-tagged (human) (UniProt O15123). The description is as above.
Assay [8] deals with Mutant Ang2 Y460 (alanine), FLAG-tagged (human) (UniProt O15123). The assay is described as above.
In assay [9] the target is Mutant Ang2 P419 (alanine), FLAG-tagged (human) (UniProt O15123). Described as above.
The target of assay [10] is Mutant Ang2 P452 (alanine), FLAG-tagged (human) (UniProt O15123). The description is as above.
Assay [11] deals with Mutant Ang2 N467 (alanine), FLAG-tagged (human) (UniProt O15123). The description is as above.
Assay [12] deals with Mutant Ang2 N421 (alanine), FLAG-tagged (human) (UniProt O15123). The assay is described as above.
The target of assay [13] is T2, 재조합 hAng-2 (C-His, R&D Systems) (human, UniProt O15123 19-496).
T2 construct: Bought protein; also called 인간 Ang-2 단백질
T2 sequence: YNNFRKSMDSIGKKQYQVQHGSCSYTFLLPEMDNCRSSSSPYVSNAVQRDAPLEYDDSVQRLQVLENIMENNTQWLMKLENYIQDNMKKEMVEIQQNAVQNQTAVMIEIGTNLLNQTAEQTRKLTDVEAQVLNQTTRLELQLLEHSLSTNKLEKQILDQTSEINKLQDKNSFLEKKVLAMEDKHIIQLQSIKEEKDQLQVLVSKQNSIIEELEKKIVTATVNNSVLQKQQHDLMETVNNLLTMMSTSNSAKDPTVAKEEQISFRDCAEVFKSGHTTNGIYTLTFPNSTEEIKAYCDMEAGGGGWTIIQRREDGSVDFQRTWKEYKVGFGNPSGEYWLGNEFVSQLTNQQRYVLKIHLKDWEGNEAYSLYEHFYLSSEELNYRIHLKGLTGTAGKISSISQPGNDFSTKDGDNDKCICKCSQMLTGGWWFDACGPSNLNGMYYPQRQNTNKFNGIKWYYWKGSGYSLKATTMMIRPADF
The experiment in a line: SPR, BIAcore T100; hAng-2 (C-His) captured by anti-His antibody on CM5 chip, antibody flowed from 100 nM in 2-fold dilutions. On the technique in general: Surface plasmon resonance follows binding to a sensor surface in real time, without labels.

T1 sequence (Q02763 23-745 limits assumed): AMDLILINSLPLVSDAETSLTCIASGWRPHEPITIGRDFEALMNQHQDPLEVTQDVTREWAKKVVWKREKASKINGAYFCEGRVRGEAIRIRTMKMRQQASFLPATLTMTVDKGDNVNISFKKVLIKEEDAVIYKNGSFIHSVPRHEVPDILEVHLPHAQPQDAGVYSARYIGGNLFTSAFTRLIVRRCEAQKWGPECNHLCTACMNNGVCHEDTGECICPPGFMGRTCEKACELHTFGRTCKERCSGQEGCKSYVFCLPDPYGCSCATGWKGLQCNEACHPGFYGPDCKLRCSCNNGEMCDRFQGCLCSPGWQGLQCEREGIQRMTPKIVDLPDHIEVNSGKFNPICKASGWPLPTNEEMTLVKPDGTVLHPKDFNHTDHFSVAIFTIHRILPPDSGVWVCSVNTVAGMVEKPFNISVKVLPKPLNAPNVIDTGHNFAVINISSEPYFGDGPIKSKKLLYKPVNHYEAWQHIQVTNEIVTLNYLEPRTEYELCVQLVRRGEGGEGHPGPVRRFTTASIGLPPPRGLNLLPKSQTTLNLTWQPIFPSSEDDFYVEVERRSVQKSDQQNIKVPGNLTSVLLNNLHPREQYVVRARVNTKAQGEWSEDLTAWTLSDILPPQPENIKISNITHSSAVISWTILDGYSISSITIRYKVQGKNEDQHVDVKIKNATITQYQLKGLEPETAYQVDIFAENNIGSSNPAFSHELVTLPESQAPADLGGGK

B1: Ang2 단백질(R&D systems) (ligand)
chain: YNNFRKSMDSIGKKQYQVQHGSCSYTFLLPEMDNCRSSSSPYVSNAVQRDAPLEYDDSVQRLQVLENIMENNTQWLMKLENYIQDNMKKEMVEIQQNAVQNQTAVMIEIGTNLLNQTAEQTRKLTDVEAQVLNQTTRLELQLLEHSLSTNKLEKQILDQTSEINKLQDKNSFLEKKVLAMEDKHIIQLQSIKEEKDQLQVLVSKQNSIIEELEKKIVTATVNNSVLQKQQHDLMETVNNLLTMMSTSNSAKDPTVAKEEQISFRDCAEVFKSGHTTNGIYTLTFPNSTEEIKAYCDMEAGGGGWTIIQRREDGSVDFQRTWKEYKVGFGNPSGEYWLGNEFVSQLTNQQRYVLKIHLKDWEGNEAYSLYEHFYLSSEELNYRIHLKGLTGTAGKISSISQPGNDFSTKDGDNDKCICKCSQMLTGGWWFDACGPSNLNGMYYPQRQNTNKFNGIKWYYWKGSGYSLKATTMMIRPADF
notes: also called 인간 Ang2 단백질 (R&D systems; 623-AN-025/CF)
On to B1, for which the binding result with hTie2-Fc (R&D Systems) is “binds”.

B2: SAIT-ANG2-AB-m10D6 (antibody, V domains shown)
VH: DVQLQESGPGLVKPSQSLSLTCTVTGYSITSDYAWNWIRQFPGNKLEWMGYINYSGNTDYNPSLKSRSSITRDTSKNQFFLQLNSVTTGDTATYYCARGNFEGAMDYWGQGTSVTVSS
VL: SIVMTQTPKFLLVSAGDRVTITCKASQSVSNDVAWYQQKPGQSPKLLIYYASNRYPGVPDRFTGSGYGTDFTFTISTVQAEDLAVYFCQQDYSSPWTFGGGTKLEIK
notes: also called 10D6 항체; 10D6 anti-Ang2 항체
Consider B2, for which the native Ang2와의 결합력에 대한 Mutant Ang2 와의 결합력(%) in assay [1] turned out to be 38.9%; in [2] it was 109%; in assay [3] it was 109%; in assay [4], 97.9%; in assay [5], 101%; in [6] it was 105%. In addition, the native Ang2와의 결합력에 대한 Mutant Ang2 와의 결합력(%) is 110% in assay [7]; 103% in [8]; 41.1% in assay [9]; 102% in assay [10]; 107% in assay [11]; 109% in assay [12]. Also, binding in assay [13] was characterised by a dissociation constant (Kd) of 8 nM.

A word on the Kd: it is the concentration at which binding is half-saturated. Read a low Kd as a tighter complex.
